This note sets out measurements from patent publication CN112062838A (UNIV NANJING MEDICAL, dated 2020).

The target in experiment [1] is SARS-CoV-2 spike (D614) on pseudovirus (SARS-CoV-2, UniProt P0DTC2 14-1273). Nature of the experiment: cell-based or functional assay.
Another experiment deals with T1, SARS-CoV-RBD-hFc (SARS-CoV, UniProt P59594 306-527).
T1 construct: domain: RBD
Nature of the experiment: phage ELISA, antigen coated at 5μg/ml, anti-M13 HRP detection. (An ELISA detects its analyte on a solid surface through an enzyme-linked reagent.)

Several values for one entry are separate records, joined by “and”; a condition that tells them apart may be missing. Equal values may be shown once.

B1: 4D8-hFc重组蛋白 (单域抗体4D8, purified) (Fc fusion, not shown: a dimerising Fc or GST)
chain: QVQLVQSGGGLVQPGGSLRLSCAASDFDFYDYEMSWVRQAPGKALEWIGEIHHSGSTYYNPSLKSRVTISRDNSKNTLYLQMNTLRAEDTAIYYCVKDFVGADGPFVFDYWGQGTLVTVSS
As to B1, in experiment [1], the “伪病毒中和 IC50 (Luciferase活性, CHO-ACE2细胞)” value is 1.13 μg/ml and 15 nM.

B2: 4D8克隆 (4D8噬菌体, phage-displayed single-domain antibody clone) (VHH)
VHH: B1 chain
notes: also called 富集克隆4D8
For B2, the binding result with SARS-CoV-RBD-hFc is “no binding”.
